Data as given in patent US20160244527A1 (AFFITECH RESEARCH, published 2016).

Assays:
[1] = molecular target: T1, CXC chemokine receptor 4 (CXCR4), human (human, UniProt P61073 1-352); experiment: EasyCyte flow cytometry, IgG titration (12 points, three-fold) on Ramos cells naturally expressing CXCR4; RPE goat anti-human IgG detection
T1 construct: whole, on cells; also called human CXCR4; fusin
Procedure: The cells were harvested from culture flasks, washed 2 times with PBS (350×g, 5 min, 4° C.) and resuspended in PBS containing 0.2% BSA and 0.09% NaN₃. 1×10⁵ cells per well were aliquoted into V-shaped 96-well plates (Greiner Bio-One, Frikenhausen, Germany). The cells were centrifuged (350×g, 5 min, 4° C.) and resuspended in 50 μl IgG (50 μg/ml) in PBS containing 0.2% BSA and 0.09% NaN₃. Titration was done in twelve points and three fold dilution. […] Cells were washed, resuspended in 200 μl PBS with 0.2% BSA and 0.09% NaN₃, and transferred to a U-shaped 96 well Costar (Corning, Schiphol-Rijik, The Netherlands) plate for flow cytometry using an Easy Cyte device (Guava Technologies, Hayward, Calif., USA).

[2] = molecular target: T1, CXC chemokine receptor 4 (CXCR4), human; experiment: cell-based or functional assay
[3] = molecular target: T1, CXC chemokine receptor 4 (CXCR4), human; experiment: cell-based or functional assay; remark: listed apart in the source
[4] = molecular target: T1, CXC chemokine receptor 4 (CXCR4), human; experiment: flow cytometry (EasyCyte), IgG1 10 µg/ml on CCRF-CEM cells; PBS negative control 3.11
Procedure: The natural CXCR4⁺ expressing cell line CCRF-CEM was harvested from the culture flasks, washed 2 times with PBS supplemented with 0.2% BSA and 0.09% NaN₃ buffer and aliquoted at 1×10⁵ cells per well into V-shaped 96-well plates (Greiner Bio-One, Frickenhausen, Germany). Cells were pelleted by centrifugation (400 g, 5 min) and then incubated for 60 min at 4° C. with 50 μl IgGs diluted to 10 μg/ml in PBS supplemented with 0.2% BSA and 0.09% NaN₃ buffer. The supernatants were aspirated after a centrifugation step at 400 g for 5 min and the cells were washed another two times with 100 μl PBS supplemented with 0.2% BSA and 0.09% NaN₃ each wash was followed by a centrifugation step (5 min at 400 g). After, the cells were stained for 30 minutes at 4° C. with 50 μl of rPE-conjugated Goat anti-human IgG (AbD Serotec) diluted to 5 μg/ml in with PBS supplemented with 0.2% BSA and 0.09% NaN₃ and incubated for 30 minutes at 4° C. The cells were washed again and re-suspended in 200 μl PBS with 0.2% BSA and 0.09% NaN₃ and transferred to a U-shaped 96-well plate (Corning) for flow cytometry using an EasyCyte device (Guava Technologies, Hayward, Calif., USA).

[5] = molecular target: T2, monkey (Macaca mulatta) CXCR4 (monkey (Macaca mulatta), UniProt P79394 1-352); experiment: EasyCyte flow cytometry on HEK293T/17 cells transiently transfected with Macaca mulatta CXCR4, Fugene without DNA as negative control; scFv level according to the example, amount not given
T2 construct: whole, on cells; also called monkey CXCR4; monkey antigen
Procedure: FACS-binding analyses (EasyCyte) were performed using HEK-293 cells transiently transfected with plasmids encoding either, mouse (Gene bank accession number BC031665) or monkey (Macaca mulatta) CXCR4 (NCBI Accession number NP_001036110). Two experiments were performed, one using a-cMyc and PE-labelled goat anti-mouse IgG antibody, the second using a directly conjugated RPE-c-Myc antibody for detection. In addition, cross-reactivity on IgG level was analysed. In the latter case, antibody binding was detected with PE-conjugated goat anti-human IgG antibody.

[6] = molecular target: T1, CXC chemokine receptor 4 (CXCR4), human; experiment: EasyCyte flow cytometry, 0.5 µg scFv on 1x10^5 CXCR4-transfected versus non-transfected HEK293T cells; anti-cMyc and RPE goat anti-mouse IgG detection
Procedure: The DT40+CXCR4, HEK293+CXCR4, DT40 and HEK293 cells were harvested from culture flasks, washed 2 times with PBS (400×g, 5 min, 4° C.) and resuspended in PBS containing 0.2% BSA and 0.09% NaN₃. 1×10⁵ cells per well were aliquoted into V-shaped 96-well plates (Greiner Bio-One, Frikenhausen, Germany). The cells were centrifuged (400×g, 5 min, 4° C.) and resuspended in 50 μl ScFvs (10 μg/ml) in PBS containing 0.2% BSA and 0.09% NaN₃. […] After 1 hour incubation (4° C.), the cells were washed three times with 100 μl PBS with 0.2% BSA and 0.09% NaN₃ and incubated for 30 minutes at 4° C. with RPE conjugated goat anti-mouse IgG (F0479, Dako, Denmark) diluted to 5 μg/ml in PBS with 0.2% BSA and 0.09% NaN₃. Cells were washed, resuspended in 200 μl PBS with 0.2% BSA and 0.09% NaN₃, and transferred to a U-shaped 96 well Costar (Corning, Schiphol-Rijik, The Netherlands) plate for flow cytometry using an Easy Cyte device (Guava Technologies, Hayward, Calif., USA).

T2 sequence (P79394 whole entry): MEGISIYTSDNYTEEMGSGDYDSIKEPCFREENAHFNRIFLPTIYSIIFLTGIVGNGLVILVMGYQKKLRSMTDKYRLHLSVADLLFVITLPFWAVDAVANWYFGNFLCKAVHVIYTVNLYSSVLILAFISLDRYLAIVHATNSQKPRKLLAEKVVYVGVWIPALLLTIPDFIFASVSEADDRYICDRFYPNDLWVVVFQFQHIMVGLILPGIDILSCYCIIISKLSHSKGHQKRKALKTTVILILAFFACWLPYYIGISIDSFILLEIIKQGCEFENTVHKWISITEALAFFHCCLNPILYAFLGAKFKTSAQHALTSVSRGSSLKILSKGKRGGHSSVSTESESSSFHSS
T1 sequence (P61073 whole entry): as the sequence (P79394 whole entry) above, with I24M, H35N, R38K, K146R, S176N, D214V counted along it

Row | Binder | ADCC, EC50 (ng/mL), IgG [3] [ng/mL] | ADCC, EC50, IgG, molar [3] [nM] | ADCC, Max killing (%), CCRF-CEM cells with human PBMCs, IgG [3] [%] | median value (EasyCyte fluorescence) [4] | binding result [5] | also measured
1 | 9N10 IgG1 (antibody, V domains shown, Full length human IgG1 with kappa light chain) VH: QVQLQESGGGLVHPGGSLRLSCAASGFTFSSYWMHWVRQAPGKGLVWVSRINSDGSSTSYADSVKGRFTISRDNAKNTLYLQMNSLRAEDTAVYYCARKILGVGARSRRYFDYWGQGTMVTVSS VL: DIVLTQTPDSLAVSLGETTTINCKSSQSVLHSSNNKNYLAWYQQKPGQPPKLLIYWASTRESGVPDRFSGSGSGTDFTLTISNLQPEDVAFYYCLQYSTFPRTFGQGTKVEIKR |  |  |  |  |  | EC50 (read off the curve) [1]: ~10 nM; IC50 of inhibition of SDF-1α induced calcium flux, CCRF-CEM cells, IgG [2]: 3.85 nM; fold efficiency in inhibition of calcium flux against C-9P21 IgG [2]: ~8 fold
2 | C-9P21 IgG1 (antibody, V domains shown, Full length human IgG1 with kappa light chain; expressed from pLNO, protein A purified, monomer by SEC; also called IgG C-9P21) VH: QVQLQESGGGLVHPGGSLRLSCAASGFTFSSYWMHWVRQAPGKGLVWVSRINSDGSSTSYADSVKGRFTISRDNAKNTLYLQMNSLRAEDTAVYYCARKILGVGARSRRYFDYWGQGTMVTVSS VL: ETTLTQSPGTLSLSPGERATLSCRASQSVVSNYLAWYQQKPGQAPRLLISGASNRATGISDRFSGSGSGADFTLTISRVEPEDSAVYYCQQFDKSTWTFGQGTKVEIKR | 1850 | 12.3 | 63.5 | 626 |  | IC50 of inhibition of SDF-1α induced calcium flux, CCRF-CEM cells, IgG [2]: 29 nM
3 | D-1K21 IgG1 (antibody, V domains shown, Full length human IgG1 with kappa light chain; expressed from pLNO, protein A purified, monomer by SEC; also called IgG D-1K21) VH: not shown VL: DIQMTQSPSTLSASVGDRVTITCRASQSIGGSLAWYQQKPGKGPNLLIYAASTLQSGVPSRFSGSGSGTEFTLTISSLQPEDSATYYCQHYESYPLSFGGGTKLEIKR | 79.9 | 0.5 | 25.7 | 179 |  | 
4 | C-9P21 scFv (scFv, VH-linker-VL scFv expressed in E. coli TG1 from pHOG21; In the migration and ADCC assays it was cross-linked with anti-cMyc antibody; also called scFv C-9P21) scFv: QVQLQESGGGLVHPGGSLRLSCAASGFTFSSYWMHWVRQAPGKGLVWVSRINSDGSSTSYADSVKGRFTISRDNAKNTLYLQMNSLRAEDTAVYYCARKILGVGARSRRYFDYWGQGTMVTVSSKLSGSASAPKLEEGEFSEARVETTLTQSPGTLSLSPGERATLSCRASQSVVSNYLAWYQQKPGQAPRLLISGASNRATGISDRFSGSGSGADFTLTISRVEPEDSAVYYCQQFDKSTWTFGQGTKVEIKAAAGSEQKLISEEDLNSHHHHHH |  |  |  |  | binds | ADCC, EC50 (ng/mL), scFv cross-linked with chimeric anti-cMyc IgG1 [3]: 2.7 ng/mL; ADCC, EC50, scFv, molar [3]: 0.09 nM; IC50 of inhibition of SDF-1 induced migration of CCRF-CEM cells (Boyden chamber; scFv cross-linked with anti-cMyc) [2]: 2.9 µg/mL; IC50 of inhibition of ligand induced migration of CCRF-CEM cells, molar [2]: ~100 nM
5 | B-1M22 scFv (scFv, VH-linker-VL scFv expressed in E. coli TG1 from pHOG21; also called scFv B-1M22) scFv: QVQLVQSGAEVKKPGSSVKVSCKASGGTFSSYAISWVRQAPGQGLEWMGGIIPIFGTANYAQKFQGRVTITADESTSTAYMELRSLRSDDTAVYYCARDRERWLQSAGDYWGQGTLVTVSSKLSGSASAPKLEEGEFSEARVQPVLTQSPSVSVAPGQTARITCGGNNIGSKSVHWYQQKPGQAPVLVVYDDSDRPSGIPERFSGSNSGNTATLTISRVEAGDEADYYCQVWDSSSDHWVFGGGTKLTVLAAAGSEQKLISEEDLNSHHHHHH |  |  |  |  | binds | 
6 | C-1I24 scFv (scFv, VH-linker-VL scFv expressed in E. coli TG1 from pHOG21; also called scFv C-1I24; C-1124) scFv: QVQLVQSGGGVVQPGRSLRLSCAASGFTFSSYGMHWVRQAPGKGLEWVAVISYDGSNKYYADSVKGRFTISRDNSKNTLYLQMNSLRAEDTAVYYCAKDLPITRGTGADYWGQGTLVTVSSKLSGSASAPKLEEGEFSEARVQSVLIQPASVSGSPGQSITISCTGTSSDVGGYNYVSWYQQHPGKAPRLMIYDVTSRPSGVSNRFSGSKSGNTASLTISGLQAEDEADYYCSSYAGSYSVVFGGGTKVTVLAAAGSEQKLISEEDLNSHHHHHH |  |  |  |  | binds | binding result [6]: binds
7 | B-1M22 IgG1 (antibody, V domains shown, Full length human IgG1 with lambda light chain; expressed from pLNO, protein A purified, monomer by SEC; also called IgG B-1M22) VH: QVQLVQSGAEVKKPGSSVKVSCKASGGTFSSYAISWVRQAPGQGLEWMGGIIPIFGTANYAQKFQGRVTITADESTSTAYMELRSLRSDDTAVYYCARDRERWLQSAGDYWGQGTLVTVSS VL: QPVLTQSPSVSVAPGQTARITCGGNNIGSKSVHWYQQKPGQAPVLVVYDDSDRPSGIPERFSGSNSGNTATLTISRVEAGDEADYYCQVWDSSSDHWVFGGGTKLTVLG | 116 | 0.8 | 100 | 1080 |  | 
8 | C-1I24 IgG1 (antibody, V domains shown, Full length human IgG1 with lambda light chain; expressed from pLNO, protein A purified, monomer by SEC; also called IgG C-1I24; C-1124) VH: QVQLVQSGGGVVQPGRSLRLSCAASGFTFSSYGMHWVRQAPGKGLEWVAVISYDGSNKYYADSVKGRFTISRDNSKNTLYLQMNSLRAEDTAVYYCAKDLPITRGTGADYWGQGTLVTVSS VL: QSVLIQPASVSGSPGQSITISCTGTSSDVGGYNYVSWYQQHPGKAPRLMIYDVTSRPSGVSNRFSGSKSGNTASLTISGLQAEDEADYYCSSYAGSYSVVFGGGTKVTVLG | 49.2 | 0.3 | 65 | 911 |  | CDC of Ramos cells in presence of human serum, EC50, IgG [2]: 0.7 µg/mL
